Values quoted from earlier work as cited in PMC4474783.

Columns and labels:
[1] = target: calnexin (Homo sapiens) (UniProt P27824)
[2] = target: calreticulin (Homo sapiens) (UniProt P27797)
[3] = target: calnexin P-domain (Homo sapiens) (UniProt P27824); assay: ITC
[4] = target: calreticulin 189-288 (Homo sapiens) (UniProt P27797)

Row | Kd [1] [µM] | Kd [2] [µM] | Kd [3] [µM] | Kd [4] [µM] | Substance
1 | 10 | 10 |  |  | CypB (from UniProt P23284)
2 |  |  | 26 | 9 | ERp57 (from UniProt P30101)
